{"source": "paper PMC10023680", "about": "“Targeting Ras-binding domain of ELMO1 by computational nanobody design” (Communications Biology, 2023)", "binders": {"B1": {"name": "Nb29 (VHH)", "VHH": "VQLVESGGGLVQAGDSLRLSCAASGLLFSFYIMGWFRQAPGREREFVAAIKWAGDTIYGTDSVKGRFAISRDNAKNTMYLQMNSLKPEDTAVYYCAADRFLTRSVKYTYWGQGTQVTVSS", "notes": "as Nb01 (designed from PDB 5LMW chain A) with S57A, R67T, T68I (CDR2) and D137T (CDR3) relative to Nb01; keeps Leu29 and Lys59; numbers count on: AHo numbering; S57A, R67T, T68I and D137T are stated against Nb01, not against the parent 5LMW; the old residues may themselves be designed ones; source: E. coli cell-free protein synthesis (with DsbC and GSSG), purified (Ni Sepharose)"}, "B2": {"name": "Nb02 (VHH)", "VHH": "B1 VHH with L27M, A49S, K51T, T56R, I57T, T108D", "notes": "designed from the parent nanobody chain A of PDB 5LMW; as Nb01 but with T29M and S59T instead of T29L and S59K; numbers count on: AHo numbering; source: E. coli cell-free protein synthesis (with DsbC and GSSG), purified (Ni Sepharose)"}, "B3": {"name": "Nb29 (VHH)", "VHH": "B1 VHH", "notes": "It is Nb01 with S57A, R67T, T68I (CDR2) and D137T (CDR3); S57A, R67T, T68I and D137T are stated against Nb01, not against 5LMW; Numbers count on: AHo numbering; A TEV cleavage site follows the N-terminal poly-histidine tag, but no cleavage is described for the nanobodies; source: E. coli cell-free protein synthesis, purified (Ni Sepharose resin)"}, "B4": {"name": "GST-tagged ELMO1-RBD (residues 1-113), wild-type (domain or fragment, human, UniProt Q92556 1-113, looked up)", "chain": "MPPPADIVKVAIEWPGAYPKLMEIDQKKPLSAIIKEVCDGWSLANHEYFALQHADSSNFYITEKNRNEIKNGTILRLTTSPAQNAQQLHERIQSSSMDAKLEALKDLASLSRD", "notes": "the plasmids section describes only His-tagged ELMO1-RBD; also called ELMO1-RBD wild-type; not shown: GST, N-terminal, kept"}, "B5": {"name": "GST-tagged ELMO1-RBD (residues 1-113) Y18A (domain or fragment, human, UniProt Q92556 1-113, looked up)", "chain": "B4 chain with Y18A", "notes": "not shown: GST, N-terminal, kept"}, "B6": {"name": "GST-tagged ELMO1-RBD (residues 1-113) K20E (domain or fragment, human, UniProt Q92556 1-113, looked up)", "chain": "B4 chain with K20E", "notes": "as for B5"}, "B7": {"name": "GST-tagged ELMO1-RBD (residues 1-113) N58A (domain or fragment, human, UniProt Q92556 1-113, looked up)", "chain": "B4 chain with N58A", "notes": "as for B5"}, "B8": {"name": "ELMO1-RBD (residues 1-82) (domain or fragment, human, UniProt Q92556 1-82, looked up)", "chain": "MPPPADIVKVAIEWPGAYPKLMEIDQKKPLSAIIKEVCDGWSLANHEYFALQHADSSNFYITEKNRNEIKNGTILRLTTSPA"}}, "details_in_all_cases": "both partners purified", "key": {"[1]": {"molecular_target": "ELMO1-RBD (residues 1-98) (Homo sapiens, UniProt Q92556)", "experiment": "SPR; Biacore T200; ELMO1-RBD (1-98) amine-coupled to CM5 chip; nanobody designs injected at five concentrations (0.5-8 μM); 10 mM HEPES pH 7.5, 150 mM NaCl, 0.005% P-20; single-cycle kinetic analysis"}, "[2]": {"molecular_target": "T1, ELMO1-RBD (residues 1-98) (Homo sapiens, UniProt Q92556)", "T1 construct": "source: E. coli cell-free protein synthesis, purified (HisTrap, HiTrap Q, Superdex 75); not shown: histidine tag, N-terminal, cleaved", "experiment": "SPR; ELMO1-RBD (residues 1-98) immobilised on a CM5 chip by amine coupling; 10 mM HEPES pH 7.5, 150 mM NaCl, 0.005% surfactant P-20; five concentrations (0.5-8 uM) of each nanobody injected continuously; single-cycle kinetic analysis; Biacore T200"}, "RhoG (residues 1-184) [3]": {"molecular_target": "T2, RhoG (residues 1-184) (human, UniProt P84095 1-184)", "T2 construct": "human RhoG, residues 1-184; Loaded with GTPγS for the SPR assays; also called active RhoG; source: Sf9 (baculovirus), purified (HisTrap, TEV, Superdex 75); not shown: poly-histidine tag, N-terminal, cleaved", "T2 sequence (P84095 1-184)": "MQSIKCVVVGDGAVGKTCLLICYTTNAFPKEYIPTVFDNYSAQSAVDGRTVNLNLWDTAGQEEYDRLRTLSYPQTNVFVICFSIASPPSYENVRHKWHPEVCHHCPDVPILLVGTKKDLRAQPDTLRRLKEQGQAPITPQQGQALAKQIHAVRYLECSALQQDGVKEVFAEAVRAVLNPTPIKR", "experiment": "SPR; Biacore T200; GST-ELMO1-RBD (1-113, wild-type or mutants) captured on CM5 chip with GST Capture Kit; GTPγS-bound RhoG injected at 2.2-35.5 μM (Rac1 and Cdc42 measured similarly); 10 mM HEPES pH 7.5, 150 mM NaCl, 1 mM MgCl2, 0.005% P-20; steady-state affinity analysis"}, "RhoG (residues 1-184) [4]": {"molecular_target": "T2, RhoG (residues 1-184)", "experiment": "crystal structure; equimolar ELMO1-RBD (residues 1-82) and RhoG mixed at 16 mg/ml, 4 °C for 4 h; hanging-drop vapor diffusion at 20 °C; 1.6 Å"}}, "note": "Positions count from the first letter of the chain named. Names and notes keep the numbering of the source.", "data": [{"binder": "B1", "values": [{"measurement": "Kd", "setting": "[1]", "value": 2000, "unit": "nM"}]}, {"binder": "B2", "values": [{"measurement": "binding result", "setting": "[1]", "value": "no binding (tested: 0.5-8 μM)"}]}, {"binder": "B3", "values": [{"measurement": "Kd", "setting": "[2]", "value": 2020, "unit": "nM"}]}, {"binder": "B4", "values": [{"measurement": "binding result", "setting": "RhoG (residues 1-184) [3]", "value": "binds"}]}, {"binder": "B5", "values": [{"measurement": "binding result", "setting": "RhoG (residues 1-184) [3]", "value": "binds"}]}, {"binder": "B6", "values": [{"measurement": "binding result", "setting": "RhoG (residues 1-184) [3]", "value": "binds"}]}, {"binder": "B7", "values": [{"measurement": "binding result", "setting": "RhoG (residues 1-184) [3]", "value": "binds"}]}, {"binder": "B8", "values": [{"measurement": "binding result", "setting": "RhoG (residues 1-184) [4]", "value": "binds"}]}]}
